Here are results for three molecules from paper PMC2117344, “A New In Vitro Strand Transfer Assay for Monitoring Bacterial Class 1 Integron Recombinase IntI1 Activity”.

For this data set, the target named is T1, IntI1(his)6 wild type (Pseudomonas aeruginosa Pa695 (class 1 …, UniProt Q7BP41 1-337)).
T1 sequence: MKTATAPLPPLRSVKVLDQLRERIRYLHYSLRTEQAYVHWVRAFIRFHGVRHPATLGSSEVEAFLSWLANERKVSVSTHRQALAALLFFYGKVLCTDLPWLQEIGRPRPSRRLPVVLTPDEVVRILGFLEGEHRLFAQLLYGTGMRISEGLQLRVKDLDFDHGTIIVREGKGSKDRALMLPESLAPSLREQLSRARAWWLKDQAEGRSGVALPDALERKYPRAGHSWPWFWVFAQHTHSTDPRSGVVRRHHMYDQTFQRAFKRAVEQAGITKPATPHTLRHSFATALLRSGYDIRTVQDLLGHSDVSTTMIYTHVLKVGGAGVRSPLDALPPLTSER
Briefly: EMSA; 20 min at 4 C in 20 ul, 0.1 pmol DNA, 1-10 pmol IntI1, 1% agarose gel at 4 C; filter wash buffer 20 mM HEPES pH 7.5, 10 mM MnCl2, 30 mM NaCl (pre-wash 10 mM NaCl, 100 ug/ml calf thymus DNA); exact binding buffer not given. As to conditions: protein: recombinant, tags: C-terminal His6 (pET101D-Topo), label: 5' 32P. On the technique in general: Mobility shift assays separate free from complexed probe on a gel.

B1: attC top strand (attCts) (ssDNA)
DNA: CGCCCGTCTAACAATTCGTTCAAGCCGACGTTGCTTCGTGGCGGCGCTTGCGTGCTACGCTAAGCTTCGCACGCCGCTTGCCACTGCGCACCGCGGCTTAACTCAGGCGTTAGATGCACT
As to B1, the binding result (single strand) is on record as “no binding”.

B2: attC bottom strand (attCbs) (ssDNA)
DNA: AGTGCATCTAACGCCTGAGTTAAGCCGCGGTGCGCAGTGGCAAGCGGCGTGCGAAGCTTAGCGTAGCACGCAAGCGCCGCCACGAAGCAACGTCGGCTTGAACGAATTGTTAGACGGGCG
Turning to B2, the binding result (single strand) is “binds”.

B3: attI1ds (dsDNA)
DNA 1: ACGCCGTGGGTCGATGTTTGATGTTATGGAGCAGCAACGATGTTACGCAGCAGGGCAGTCGCCCTAAAACAAAGTTAGGTGGCTCAATGAGCATCATTGC
DNA 2: GCAATGATGCTCATTGAGCCACCTAACTTTGTTTTAGGGCGACTGCCCTGCTGCGTAACATCGTTGCTGCTCCATAACATCAAACATCGACCCACGGCGT
On to B3, for which, for the setting “blunt”, the binding result is recorded as “binds”.
